This data set deals with Escherichia coli TOP10. The data set can be described thus: shrunken log2 fold change of peptide-encoding DNA abundance (4.5 h post-induction vs induction); higher = less antimicrobial activity (less host growth inhibition). The note with it: time post-induction: 4.5 h; library: site-saturation at positions 5, 18, 19, 20.
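Further: peptides expressed intracellularly from a pBAD plasmid library in pooled LB shake-flask culture, induced with 0.3% L-arabinose, DNA abundance read by NGS, three biological replicates, DESeq2 with apeglm shrinkage.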

As for RRIRWRPPRLPRPRPRPRVRPRP, the “shrunken log2 fold change” value was 0.563.

On to RRIRPRPPRLPRPRPRPFRCPRP, for which the “shrunken log2 fold change” value stood at 0.12.

Take RRIRNRPPRLPRPRPRPCKPPRP: the “shrunken log2 fold change” value is -0.0414.

RRIRLRPPRLPRPRPRPQAPPRP: the “shrunken log2 fold change” value turned out to be 0.138.

For the sequence RRIRPRPPRLPRPRPRPLCYPRP, the “shrunken log2 fold change” value was -0.488.

Take RRIRFRPPRLPRPRPRPVQCPRP: the “shrunken log2 fold change” value was 0.0456.

In the case of RRIRKRPPRLPRPRPRPQISPRP, the “shrunken log2 fold change” value is -0.0814.

For the sequence RRIRKRPPRLPRPRPRPWFQPRP, the “shrunken log2 fold change” value is -0.0934.

Regarding RRIRRRPPRLPRPRPRPWLYPRP, the “shrunken log2 fold change” value came to 0.0161.

As to RRIRRRPPRLPRPRPRPNIQPRP, the “shrunken log2 fold change” value was 0.0304.

With RRIRDRPPRLPRPRPRPVKLPRP, the “shrunken log2 fold change” value is -0.896.

Consider RRIRFRPPRLPRPRPRPQMEPRP, for which the “shrunken log2 fold change” value is -0.059.

As for RRIRLRPPRLPRPRPRPLIHPRP, the “shrunken log2 fold change” value was -0.542.

For the sequence RRIRGRPPRLPRPRPRPCGSPRP, the “shrunken log2 fold change” value turned out to be 0.107.

For RRIRPRPPRLPRPRPRPISYPRP, the “shrunken log2 fold change” value is -0.163.

On to RRIRIRPPRLPRPRPRPFCIPRP, for which the “shrunken log2 fold change” value is -0.581.

On to RRIRSRPPRLPRPRPRPLSDPRP, for which the “shrunken log2 fold change” value was -0.0692.

Regarding RRIRGRPPRLPRPRPRPPWAPRP, the “shrunken log2 fold change” value is 0.769.

As for RRIRGRPPRLPRPRPRPWFTPRP, the “shrunken log2 fold change” value was -0.221.

For the sequence RRIRNRPPRLPRPRPRPHHCPRP, the “shrunken log2 fold change” value is -0.0844.

On to RRIRERPPRLPRPRPRPSGKPRP, for which the “shrunken log2 fold change” value is -0.119.

On to RRIRNRPPRLPRPRPRPSSVPRP, for which the “shrunken log2 fold change” value was determined as 0.066.

RRIRNRPPRLPRPRPRPEQSPRP: the “shrunken log2 fold change” value worked out at 0.338.

On to RRIRCRPPRLPRPRPRPHADPRP, for which the “shrunken log2 fold change” value is 0.145.

Take RRIRMRPPRLPRPRPRPCCNPRP: the “shrunken log2 fold change” value is -0.00151.

Turning to RRIRPRPPRLPRPRPRPNMWPRP, the “shrunken log2 fold change” value is -0.084.

As to RRIRQRPPRLPRPRPRPPELPRP, the “shrunken log2 fold change” value came to 0.109.

For the sequence RRIRYRPPRLPRPRPRPGQDPRP, the “shrunken log2 fold change” value was -0.346.

Consider RRIRWRPPRLPRPRPRPKTLPRP, for which the “shrunken log2 fold change” value came to 0.19.

RRIRHRPPRLPRPRPRPHALPRP: the “shrunken log2 fold change” value turned out to be 0.0244.

In the case of RRIRMRPPRLPRPRPRPGHPPRP, the “shrunken log2 fold change” value amounted to 0.196.

Consider RRIRPRPPRLPRPRPRPPKWPRP, for which the “shrunken log2 fold change” value was found to be 0.469.

On to RRIRRRPPRLPRPRPRPRECPRP, for which the “shrunken log2 fold change” value is -0.12.

On to RRIRPRPPRLPRPRPRPTIIPRP, for which the “shrunken log2 fold change” value is -0.65.

On to RRIRDRPPRLPRPRPRPDMAPRP, for which the “shrunken log2 fold change” value was found to be 0.219.

As for RRIRLRPPRLPRPRPRPEPHPRP, the “shrunken log2 fold change” value worked out at 0.324.

For RRIRWRPPRLPRPRPRPAIQPRP, the “shrunken log2 fold change” value was determined as 0.0853.

As to RRIRNRPPRLPRPRPRPVWEPRP, the “shrunken log2 fold change” value was 0.0809.

As for RRIRTRPPRLPRPRPRPANCPRP, the “shrunken log2 fold change” value is -0.0321.

As for RRIRIRPPRLPRPRPRPYQNPRP, the “shrunken log2 fold change” value was -1.1.

RRIRRRPPRLPRPRPRPVSLPRP: the “shrunken log2 fold change” value was -0.15.

Take RRIRCRPPRLPRPRPRPLHNPRP: the “shrunken log2 fold change” value is -0.264.

Regarding RRIRPRPPRLPRPRPRPFYIPRP, the “shrunken log2 fold change” value was -0.312.

With RRIRLRPPRLPRPRPRPYPFPRP, the “shrunken log2 fold change” value is -0.137.

As for RRIRDRPPRLPRPRPRPLDNPRP, the “shrunken log2 fold change” value is -0.0187.

Turning to RRIRHRPPRLPRPRPRPVLWPRP, the “shrunken log2 fold change” value was 0.234.

As to RRIRRRPPRLPRPRPRPTNFPRP, the “shrunken log2 fold change” value was -0.125.

RRIRSRPPRLPRPRPRPHDRPRP: the “shrunken log2 fold change” value was -0.138.

On to RRIRLRPPRLPRPRPRPMWMPRP, for which the “shrunken log2 fold change” value is -0.00116.

In the case of RRIRTRPPRLPRPRPRPMPEPRP, the “shrunken log2 fold change” value was found to be 0.0253.

For the origin of these results see the supplement of paper PMC9112550, “Optimization of the antimicrobial peptide Bac7 by deep mutational scanning” (BMC Biology, 2022).
